T1: rat TNFR2 (R&D systems, 8348-R2-050) (rat, UniProt Q80WY6 23-258)
T1 construct: Bought protein
T1 sequence (looked up): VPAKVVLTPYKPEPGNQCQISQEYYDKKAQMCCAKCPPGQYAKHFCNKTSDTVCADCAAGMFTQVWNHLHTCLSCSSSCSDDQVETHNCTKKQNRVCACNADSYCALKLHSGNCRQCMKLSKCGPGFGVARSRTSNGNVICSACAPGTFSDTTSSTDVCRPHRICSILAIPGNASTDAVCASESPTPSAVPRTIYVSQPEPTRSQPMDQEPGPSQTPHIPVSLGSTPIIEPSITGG

T2: mouse TNFR2 (R&D systems, 426-R2-050/CF) (mouse, UniProt P25119 23-258)
T2 construct: Bought protein
T2 sequence (looked up): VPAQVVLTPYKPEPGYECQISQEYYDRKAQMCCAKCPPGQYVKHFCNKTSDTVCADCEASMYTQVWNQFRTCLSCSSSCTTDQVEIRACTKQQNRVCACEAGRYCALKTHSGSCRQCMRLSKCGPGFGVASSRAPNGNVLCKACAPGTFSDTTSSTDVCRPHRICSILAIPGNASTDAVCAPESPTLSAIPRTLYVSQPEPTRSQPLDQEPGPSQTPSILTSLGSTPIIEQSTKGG

T3: Human TNFR1 (Acro Biosystem, TN1-H5222) (human, UniProt P19438 30-211)
T3 construct: Bought protein; also called TNF receptor type 1; CD120a
T3 sequence (looked up): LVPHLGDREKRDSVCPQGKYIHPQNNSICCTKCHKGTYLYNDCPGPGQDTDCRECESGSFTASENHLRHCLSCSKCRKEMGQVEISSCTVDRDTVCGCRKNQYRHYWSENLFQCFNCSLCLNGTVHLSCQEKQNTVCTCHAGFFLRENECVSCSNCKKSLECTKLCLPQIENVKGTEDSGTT


Key:
[1] = target: T1, rat TNFR2 (R&D systems, 8348-R2-050); experiment: ELISA, receptor coated at 1 µg/ml
Experimental: Plates were incubated at 4° C. overnight. Antibodies was titrated from 100 μg/ml in a 5-fold dilution series, and distributed 100 μL, per well and incubated at 37° C. for 1 hour. Human IgG1 isotype control (BioxCell, BE0297) was used as negative control. TNFR2 Polyclonal Antibody (Invitrogen, PAS-80159) and HRP conjugated Goat anti-Rabbit IgG Fc Secondary Antibody (Invitrogen, A16116) were used as positive control for rat TNFR2 detection.

[2] = target: T2, mouse TNFR2 (R&D systems, 426-R2-050/CF); experiment: ELISA, receptor coated at 1 µg/mL
Experimental: (§1) Human TNFR2 (Acro Biosystem, TN2-H5227), Human TNFR1 (Acro Biosystem, TN1-H5222), Cynomolgus TNFR2 (Sino Biological, 90102-CO8H) or mouse TNFR2 (R&D systems, 426-R2-050/CF) was coated on high binding polystyrene flat bottom micro-titer plates (Thermo Scientific, 3455) in PBS (PH=7.4, Gibco,10010-031) at 1 μg/mL and 100 μL per well. Plates were incubated at 4° C. overnight.
(§2) Plates were warmed up to room temperature the next day and washed with 200 μL PBS containing 0.1% Tween 20 (Life technologies, 003005) per well for 3 times. Plates were blocked with 200 μL PBS buffer containing 1% BSA (Fisher Scientific, BP1600-100) per well for 1 hour at 37° C. Antibodies was titrated from 5 μg/mL in a 5-fold dilution series, distributed 100 μL per well and incubated at 37° C. for 1 hour. Human IgG1 isotype control (BioxCell, BE0297) was used as negative control. Plates were washed with 200 μL PBS containing 0.1% Tween 20 (Life technologies, 003005) per well for 3 times. Goat anti-Human IgG Fc Secondary Antibody-HRP conjugate (Invitrogen, A18817) were distributed at 0.5μg/mL and 100 μL per well to detect bound antibodies. After 1-hour incubation of secondary antibody at 37° C., plates were washed with 200 μL PBS containing 0.1% Tween 20 (Life technologies, 003005) per well for 3 times. Plates were developed using TMB Substrate Solution (eBioscience, 00-4201-56) and stopped with ELISA stop solution (Invitrogen, SSO4). The level of bound antibodies was determined by reading absorbance at 450 nm. Mouse anti-human TNFR1 antibody (ThermoFisher Scientific, MA1-81005) and goat anti mouse IgG secondary antibody-HRP conjugate (Invitrogen, 62-5520) were used as positive control for human TNFR1 detection. Armenian Hamster anti-mouse TNFR2 antibody (InVivoMab, BE0247) and HRP-Goat anti-Armenian Hamster IgG (H+L) Secondary Antibody (Invitrogen, PA1-32045) were used as positive control for mouse TNFR2 detection.

[3] = target: T3, Human TNFR1 (Acro Biosystem, TN1-H5222); experiment: ELISA, receptor coated at 1 µg/mL
Experimental: as §1, §2

| Binder | binding result [1] | binding result [2] | binding result [3] |
| --- | --- | --- | --- |
| TN36-10 (antibody, V domains shown, Humanized; also called AL4/AL8) VH: EVQLVESGGGLIQPGGSLRLSCAASGFSLSSSAVSWVRQAPGKGLEWIGAIGSGGTSYYSNWAKSRFTISRDTSKNTVYLQMNSLRAEDTAVYFCARDPNSSDYPYGAYGMGLWGPGTLVTVSS VL: DIQMTQSPSSLSASVGDRVTITCQVSQSISSYLSWYQQKPGKAPKLLIYYASTLASGVPSRFSGSGSGTDFTLTISSLQPEDFATYYCQQGYITSNVGNAFGGGTKVEIK | no binding (tested: titrated from 100 µg/ml) | no binding (tested: titrated from 5 µg/mL) | no binding (tested: titrated from 5 µg/mL) |
| TN36-18 (antibody, human IgG1, V domains shown, Humanized; also called AL6/AL8) VH: EVQLVESGGGLVQPGGSLRLSCAASGFSLSSSAVSWVRQAPGKGLEWIGAIGSGGTSYYSNWAKSRFTISRDNSKNTLYLQMNSLRAEDTAVYYCARDPNSSDYPYGAYGMGLWGPGTLVTVSS VL: DIQMTQSPSSLSASVGDRVTITCQVSQSISSYLSWYQQKPGKAPKLLIYYASTLASGVPSRFSGSGSGTDFTLTISSLQPEDFATYYCQQGYITSNVGNAFGGGTKVEIK | no binding (tested: titrated from 100 µg/ml) | no binding (tested: titrated from 5 µg/mL) | no binding (tested: titrated from 5 µg/mL) |
| TN36-13 (antibody, human IgG1, V domains shown, Humanized; also called AL4/AL11) VH: EVQLVESGGGLIQPGGSLRLSCAASGFSLSSSAVSWVRQAPGKGLEWIGAIGSGGTSYYSNWAKSRFTISRDTSKNTVYLQMNSLRAEDTAVYFCARDPNSSDYPYGAYGMGLWGPGTLVTVSS VL: DIQLTQSPSFLSASVGDRVTITCQVSQSISSYLSWYQQKPGKAPKLLIYYASTLASGVPSRFSGSGSGTEFTLTISSLQPEDFATYYCQQGYITSNVGNAFGGGTKVEIK | no binding (tested: titrated from 100 µg/ml) | no binding (tested: titrated from 5 µg/mL) | no binding (tested: titrated from 5 µg/mL) |
| TN36-17 (antibody, human IgG1, V domains shown, Humanized; also called AL5/AL11) VH: EVQLVESGGGLVQPGGSLRLSCAASGFSLSSSAVSWVRQAPGKGLEWIGAIGSGGTSYYSNWAKSRFTISRDNSKNTLYLQMNSLRAEDTAVYYCARDPNSSDYPYGAYGMGLWGQGTLVTVSS VL: DIQLTQSPSFLSASVGDRVTITCQVSQSISSYLSWYQQKPGKAPKLLIYYASTLASGVPSRFSGSGSGTEFTLTISSLQPEDFATYYCQQGYITSNVGNAFGGGTKVEIK | no binding (tested: titrated from 100 µg/ml) | no binding (tested: titrated from 5 µg/mL) | no binding (tested: titrated from 5 µg/mL) |
| TN36-12 (antibody, human IgG1, V domains shown, Humanized; also called AL4/AL10) VH: EVQLVESGGGLIQPGGSLRLSCAASGFSLSSSAVSWVRQAPGKGLEWIGAIGSGGTSYYSNWAKSRFTISRDTSKNTVYLQMNSLRAEDTAVYFCARDPNSSDYPYGAYGMGLWGPGTLVTVSS VL: DIQMTQSPSFLSASVGDRVTITCQVSQSISSYLSWYQQKPGKAPKLLIYYASTLASGVPSRFSGSGSGTDFTLTISSLQPEDFATYYCQQGYITSNVGNAFGGGTKVEIK | no binding (tested: titrated from 100 µg/ml) | no binding (tested: titrated from 5 µg/mL) | no binding (tested: titrated from 5 µg/mL) |
| TN36-15 (antibody, human IgG1, V domains shown, Humanized; also called AL5/AL9) VH: EVQLVESGGGLVQPGGSLRLSCAASGFSLSSSAVSWVRQAPGKGLEWIGAIGSGGTSYYSNWAKSRFTISRDNSKNTLYLQMNSLRAEDTAVYYCARDPNSSDYPYGAYGMGLWGQGTLVTVSS VL: DIQMTQSPSSLSASVGDRVTITCQVSQSISSYLSWYQQKPGKPPKLLIYYASTLASGVPSRFSGSGSGTDFTLTISSLQPEDFATYYCQQGYITSNVGNAFGGGTKVEIK | no binding (tested: titrated from 100 µg/ml) | no binding (tested: titrated from 5 µg/mL) | no binding (tested: titrated from 5 µg/mL) |
| TN36-16 (antibody, human IgG1, V domains shown, Humanized; also called AL5/AL10) VH: EVQLVESGGGLVQPGGSLRLSCAASGFSLSSSAVSWVRQAPGKGLEWIGAIGSGGTSYYSNWAKSRFTISRDNSKNTLYLQMNSLRAEDTAVYYCARDPNSSDYPYGAYGMGLWGQGTLVTVSS VL: DIQMTQSPSFLSASVGDRVTITCQVSQSISSYLSWYQQKPGKAPKLLIYYASTLASGVPSRFSGSGSGTDFTLTISSLQPEDFATYYCQQGYITSNVGNAFGGGTKVEIK | no binding (tested: titrated from 100 µg/ml) | no binding (tested: titrated from 5 µg/mL) | no binding (tested: titrated from 5 µg/mL) |
| TN36-11 (antibody, human IgG1, V domains shown, Humanized; also called AL4/AL9) VH: EVQLVESGGGLIQPGGSLRLSCAASGFSLSSSAVSWVRQAPGKGLEWIGAIGSGGTSYYSNWAKSRFTISRDTSKNTVYLQMNSLRAEDTAVYFCARDPNSSDYPYGAYGMGLWGPGTLVTVSS VL: DIQMTQSPSSLSASVGDRVTITCQVSQSISSYLSWYQQKPGKPPKLLIYYASTLASGVPSRFSGSGSGTDFTLTISSLQPEDFATYYCQQGYITSNVGNAFGGGTKVEIK | no binding (tested: titrated from 100 µg/ml) | no binding (tested: titrated from 5 µg/mL) | no binding (tested: titrated from 5 µg/mL) |
| TN36-19 (antibody, human IgG1, V domains shown, Humanized; also called AL6/AL9) VH: EVQLVESGGGLVQPGGSLRLSCAASGFSLSSSAVSWVRQAPGKGLEWIGAIGSGGTSYYSNWAKSRFTISRDNSKNTLYLQMNSLRAEDTAVYYCARDPNSSDYPYGAYGMGLWGPGTLVTVSS VL: DIQMTQSPSSLSASVGDRVTITCQVSQSISSYLSWYQQKPGKPPKLLIYYASTLASGVPSRFSGSGSGTDFTLTISSLQPEDFATYYCQQGYITSNVGNAFGGGTKVEIK | no binding (tested: titrated from 100 µg/ml) | no binding (tested: titrated from 5 µg/mL) | no binding (tested: titrated from 5 µg/mL) |
| TN36-20 (antibody, human IgG1, V domains shown, Humanized; also called AL6/AL10) VH: EVQLVESGGGLVQPGGSLRLSCAASGFSLSSSAVSWVRQAPGKGLEWIGAIGSGGTSYYSNWAKSRFTISRDNSKNTLYLQMNSLRAEDTAVYYCARDPNSSDYPYGAYGMGLWGPGTLVTVSS VL: DIQMTQSPSFLSASVGDRVTITCQVSQSISSYLSWYQQKPGKAPKLLIYYASTLASGVPSRFSGSGSGTDFTLTISSLQPEDFATYYCQQGYITSNVGNAFGGGTKVEIK | no binding (tested: titrated from 100 µg/ml) | no binding (tested: titrated from 5 µg/mL) | no binding (tested: titrated from 5 µg/mL) |
| TN36-14 (antibody, human IgG1, V domains shown, Humanized; also called AL5/AL8) VH: EVQLVESGGGLVQPGGSLRLSCAASGFSLSSSAVSWVRQAPGKGLEWIGAIGSGGTSYYSNWAKSRFTISRDNSKNTLYLQMNSLRAEDTAVYYCARDPNSSDYPYGAYGMGLWGQGTLVTVSS VL: DIQMTQSPSSLSASVGDRVTITCQVSQSISSYLSWYQQKPGKAPKLLIYYASTLASGVPSRFSGSGSGTDFTLTISSLQPEDFATYYCQQGYITSNVGNAFGGGTKVEIK | no binding (tested: titrated from 100 µg/ml) | no binding (tested: titrated from 5 µg/mL) | no binding (tested: titrated from 5 µg/mL) |
